# Laboratory results as given in IntAct's records for PubMed 35512704.
# B1: Mothers against decapentaplegic homolog 4 (Homo sapiens), Q13485 (parent)
# chain: MDNMSITNTPTSNDACLSIVHSLMCHRQGGESETFAKRAIESLVKKLKEKKDELDSLITAITTNGAHPSKCVTIQRTLDGRLQVAGRKGFPHVIYARLWRWPDLHKNELKHVKYCQYAFDLKCDSVCVNPYHYERVVSPGIDLSGLTLQSNAPSSMMVKDEYVHDFEGQPSLSTEGHSIQTIQHPPSNRASTETYSTPALLAPSESNATSTANFPNIPVASTSQPASILGGSHSEGLLQIASGPQPGQQQNGFTGQPATYHHNSTTTWTGSRTAPYTPNLPHHQNGHLQHHPPMPPHPGHYWPVHNELAFQPPISNHPAPEYWCSIAYFEMDVQVGETFKVPSSCPIVTVDGYVDPSGGDRFCLGQLSNVHRTEAIERARLHIGKGVQLECKGEGDVWVRCLSDHAVFVQSYYLDREAGRAPGDAVHKIYPSAYIKVFDLRQCHRQMQQQAATAQAAAAAQAAAVAGNIPGPGSVGGIAPAISLSAAAGIGVDDLRRLCILRMSFVKGWGPDYPRQSIKETPCWIEIHLHRALQLLDEVLHTMPIADPQPLD
# Variants of: B1
# Conditions: with smad3_human SMAD3, P84022
# Sequence of smad3_human SMAD3, P84022 (P84022 whole entry, looked up): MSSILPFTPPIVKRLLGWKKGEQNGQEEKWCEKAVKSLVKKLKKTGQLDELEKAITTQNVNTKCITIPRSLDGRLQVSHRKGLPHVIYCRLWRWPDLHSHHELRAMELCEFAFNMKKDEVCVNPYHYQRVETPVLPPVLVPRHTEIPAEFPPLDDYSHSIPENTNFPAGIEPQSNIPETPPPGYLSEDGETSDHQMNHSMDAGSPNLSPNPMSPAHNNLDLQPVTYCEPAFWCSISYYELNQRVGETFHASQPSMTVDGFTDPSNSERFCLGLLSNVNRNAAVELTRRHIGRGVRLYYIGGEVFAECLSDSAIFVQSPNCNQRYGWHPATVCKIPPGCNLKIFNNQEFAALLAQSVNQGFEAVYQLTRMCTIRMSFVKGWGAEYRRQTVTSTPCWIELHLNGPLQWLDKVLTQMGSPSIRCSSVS
row,Variant,effect of a mutation on the interaction
1,R361H,disrupting interaction strength

# Variants of: B1
# Conditions: with agap2_human AGAP2, Q99490
row,Variant,effect of a mutation on the interaction
1,R361H,with no effect

# Variants of: B1
# Conditions: with ajuba_human AJUBA
row,Variant,effect of a mutation on the interaction
1,R361H,with no effect

# Variants of: B1
# Conditions: with akt1_human AKT1, P31749
row,Variant,effect of a mutation on the interaction
1,R361H,with no effect

# Variants of: B1
# Conditions: with akts1_human AKT1S1, Q96B36
row,Variant,effect of a mutation on the interaction
1,R361H,with no effect

# Variants of: B1
# Conditions: with akt3_human AKT3, Q9Y243
row,Variant,effect of a mutation on the interaction
1,R361H,with no effect

# Variants of: B1
# Conditions: with alk_human ALK
row,Variant,effect of a mutation on the interaction
1,R361H,with no effect

# Variants of: B1
# Conditions: with aph1a_human APH1A
row,Variant,effect of a mutation on the interaction
1,R361H,with no effect

# Variants of: B1
# Conditions: with arnt_human ARNT
row,Variant,effect of a mutation on the interaction
1,R361H,with no effect

# Variants of: B1
# Conditions: with arc1a_human ARPC1A
row,Variant,effect of a mutation on the interaction
1,R361H,with no effect

# Variants of: B1
# Conditions: with asxl1_human ASXL1, Q8IXJ9
row,Variant,effect of a mutation on the interaction
1,R361H,with no effect

# Variants of: B1
# Conditions: with bakor_human ATG14, Q6ZNE5
row,Variant,effect of a mutation on the interaction
1,R361H,with no effect

# Variants of: B1
# Conditions: with atpb_human ATP5F1B
row,Variant,effect of a mutation on the interaction
1,R361H,with no effect

# Variants of: B1
# Conditions: with aurkb_human AURKB
row,Variant,effect of a mutation on the interaction
1,R361H,with no effect

# Variants of: B1
# Conditions: with ufo_human AXL
row,Variant,effect of a mutation on the interaction
1,R361H,with no effect

# Variants of: B1
# Conditions: with za2g_human AZGP1, P25311
row,Variant,effect of a mutation on the interaction
1,R361H,with no effect

# Variants of: B1
# Conditions: with b2mg_human B2M
row,Variant,effect of a mutation on the interaction
1,R361H,with no effect

# Variants of: B1
# Conditions: with bap1_human BAP1, Q92560
row,Variant,effect of a mutation on the interaction
1,R361H,with no effect

# Variants of: B1
# Conditions: with becn1_human BECN1, Q14457
row,Variant,effect of a mutation on the interaction
1,R361H,with no effect

# Variants of: B1
# Conditions: with birc2_human BIRC2, Q13490
row,Variant,effect of a mutation on the interaction
1,R361H,with no effect

# Variants of: B1
# Conditions: with braf_human BRAF
row,Variant,effect of a mutation on the interaction
1,R361H,with no effect

# Variants of: B1
# Conditions: with baba2_human BABAM2, Q9NXR7
row,Variant,effect of a mutation on the interaction
1,R361H,with no effect

# Variants of: B1
# Conditions: with cbl_human CBL
row,Variant,effect of a mutation on the interaction
1,R361H,with no effect

# Variants of: B1
# Conditions: with cblb_human CBLB
row,Variant,effect of a mutation on the interaction
1,R361H,with no effect

# Variants of: B1
# Conditions: with ccnd2_human CCND2, P30279
row,Variant,effect of a mutation on the interaction
1,R361H,with no effect

# Variants of: B1
# Conditions: with ccnd3_human CCND3, P30281
# Sequence of ccnd3_human CCND3, P30281 (P30281 whole entry): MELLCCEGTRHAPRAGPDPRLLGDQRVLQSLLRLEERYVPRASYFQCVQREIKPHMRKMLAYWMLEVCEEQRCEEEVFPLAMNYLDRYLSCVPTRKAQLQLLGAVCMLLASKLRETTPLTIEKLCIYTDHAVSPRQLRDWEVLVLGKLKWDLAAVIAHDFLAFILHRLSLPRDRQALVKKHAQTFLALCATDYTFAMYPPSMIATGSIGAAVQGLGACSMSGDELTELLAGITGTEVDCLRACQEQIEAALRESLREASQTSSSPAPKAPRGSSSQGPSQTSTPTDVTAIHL
row,Variant,effect of a mutation on the interaction
1,R361H,with no effect

# Variants of: B1
# Conditions: with cd44_human CD44, P16070
row,Variant,effect of a mutation on the interaction
1,R361H,with no effect

# Variants of: B1
# Conditions: with cd79b_human CD79B
row,Variant,effect of a mutation on the interaction
1,R361H,with no effect

# Variants of: B1
# Conditions: with cdn2b_human CDKN2B
row,Variant,effect of a mutation on the interaction
1,R361H,with no effect

# Variants of: B1
# Conditions: with cdn2c_human CDKN2C
row,Variant,effect of a mutation on the interaction
1,R361H,with no effect

# Variants of: B1
# Conditions: with cebpa_human CEBPA
row,Variant,effect of a mutation on the interaction
1,R361H,with no effect

# Variants of: B1
# Conditions: with chd1l_human CHD1L
row,Variant,effect of a mutation on the interaction
1,R361H,with no effect

# Variants of: B1
# Conditions: with ch3l1_human CHI3L1, P36222
row,Variant,effect of a mutation on the interaction
1,R361H,with no effect

# Variants of: B1
# Conditions: with ctna1_human CTNNA1, P35221
# Sequence of ctna1_human CTNNA1, P35221 (P35221 whole entry): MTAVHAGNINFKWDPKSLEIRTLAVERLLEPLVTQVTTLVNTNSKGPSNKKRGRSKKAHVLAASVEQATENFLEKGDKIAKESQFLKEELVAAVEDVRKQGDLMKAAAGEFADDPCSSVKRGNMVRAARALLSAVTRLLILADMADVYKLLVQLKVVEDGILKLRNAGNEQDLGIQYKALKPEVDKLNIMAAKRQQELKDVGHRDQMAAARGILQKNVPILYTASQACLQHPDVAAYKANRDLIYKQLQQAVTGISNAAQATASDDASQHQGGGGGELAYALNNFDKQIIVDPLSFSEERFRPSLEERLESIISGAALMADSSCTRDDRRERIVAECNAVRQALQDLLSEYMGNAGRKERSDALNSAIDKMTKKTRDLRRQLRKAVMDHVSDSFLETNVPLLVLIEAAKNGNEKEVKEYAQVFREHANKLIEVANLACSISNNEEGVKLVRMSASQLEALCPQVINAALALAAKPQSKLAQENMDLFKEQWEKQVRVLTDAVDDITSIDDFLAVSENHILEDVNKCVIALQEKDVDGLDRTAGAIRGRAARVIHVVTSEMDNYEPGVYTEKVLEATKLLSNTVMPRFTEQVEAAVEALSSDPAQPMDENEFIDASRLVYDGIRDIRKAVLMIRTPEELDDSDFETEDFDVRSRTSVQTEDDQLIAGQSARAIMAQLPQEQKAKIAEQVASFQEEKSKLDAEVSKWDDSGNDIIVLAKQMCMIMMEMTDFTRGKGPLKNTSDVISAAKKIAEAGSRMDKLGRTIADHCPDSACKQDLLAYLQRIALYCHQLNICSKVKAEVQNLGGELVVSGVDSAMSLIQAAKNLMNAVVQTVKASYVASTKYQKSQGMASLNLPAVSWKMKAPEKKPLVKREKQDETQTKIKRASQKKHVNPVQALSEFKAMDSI
row,Variant,effect of a mutation on the interaction
1,R361H,with no effect

# Variants of: B1
# Conditions: with ctnb1_human CTNNB1, P35222
row,Variant,effect of a mutation on the interaction
1,R361H,with no effect

# Variants of: B1
# Conditions: with cul3_human CUL3, Q13618
row,Variant,effect of a mutation on the interaction
1,R361H,with no effect

# Variants of: B1
# Conditions: with cul4b_human CUL4B
row,Variant,effect of a mutation on the interaction
1,R361H,with no effect

# Variants of: B1
# Conditions: with dicer_human DICER1, Q9UPY3
row,Variant,effect of a mutation on the interaction
1,R361H,with no effect

# Variants of: B1
# Conditions: with dll3_human DLL3, Q9NYJ7
row,Variant,effect of a mutation on the interaction
1,R361H,with no effect

# Variants of: B1
# Conditions: with duox2_human DUOX2, Q9NRD8
row,Variant,effect of a mutation on the interaction
1,R361H,with no effect

# Variants of: B1
# Conditions: with e2f3_human E2F3, O00716
row,Variant,effect of a mutation on the interaction
1,R361H,with no effect

# Variants of: B1
# Conditions: with e2f4_human E2F4, Q16254
row,Variant,effect of a mutation on the interaction
1,R361H,with no effect

# Variants of: B1
# Conditions: with e2f5_human E2F5, Q15329
row,Variant,effect of a mutation on the interaction
1,R361H,with no effect

# Variants of: B1
# Conditions: with if4e_human EIF4E
row,Variant,effect of a mutation on the interaction
1,R361H,with no effect

# Variants of: B1
# Conditions: with epha2_human EPHA2, P29317
row,Variant,effect of a mutation on the interaction
1,R361H,with no effect

# Variants of: B1
# Conditions: with epha7_human EPHA7, Q15375
row,Variant,effect of a mutation on the interaction
1,R361H,with no effect

# Variants of: B1
# Conditions: with ephb1_human EPHB1, P54762
row,Variant,effect of a mutation on the interaction
1,R361H,with no effect

# Variants of: B1
# Conditions: with erbb3_human ERBB3, P21860
row,Variant,effect of a mutation on the interaction
1,R361H,with no effect

# Variants of: B1
# Conditions: with erbb4_human ERBB4, Q15303
# Sequence of erbb4_human ERBB4, Q15303 (Q15303 whole entry): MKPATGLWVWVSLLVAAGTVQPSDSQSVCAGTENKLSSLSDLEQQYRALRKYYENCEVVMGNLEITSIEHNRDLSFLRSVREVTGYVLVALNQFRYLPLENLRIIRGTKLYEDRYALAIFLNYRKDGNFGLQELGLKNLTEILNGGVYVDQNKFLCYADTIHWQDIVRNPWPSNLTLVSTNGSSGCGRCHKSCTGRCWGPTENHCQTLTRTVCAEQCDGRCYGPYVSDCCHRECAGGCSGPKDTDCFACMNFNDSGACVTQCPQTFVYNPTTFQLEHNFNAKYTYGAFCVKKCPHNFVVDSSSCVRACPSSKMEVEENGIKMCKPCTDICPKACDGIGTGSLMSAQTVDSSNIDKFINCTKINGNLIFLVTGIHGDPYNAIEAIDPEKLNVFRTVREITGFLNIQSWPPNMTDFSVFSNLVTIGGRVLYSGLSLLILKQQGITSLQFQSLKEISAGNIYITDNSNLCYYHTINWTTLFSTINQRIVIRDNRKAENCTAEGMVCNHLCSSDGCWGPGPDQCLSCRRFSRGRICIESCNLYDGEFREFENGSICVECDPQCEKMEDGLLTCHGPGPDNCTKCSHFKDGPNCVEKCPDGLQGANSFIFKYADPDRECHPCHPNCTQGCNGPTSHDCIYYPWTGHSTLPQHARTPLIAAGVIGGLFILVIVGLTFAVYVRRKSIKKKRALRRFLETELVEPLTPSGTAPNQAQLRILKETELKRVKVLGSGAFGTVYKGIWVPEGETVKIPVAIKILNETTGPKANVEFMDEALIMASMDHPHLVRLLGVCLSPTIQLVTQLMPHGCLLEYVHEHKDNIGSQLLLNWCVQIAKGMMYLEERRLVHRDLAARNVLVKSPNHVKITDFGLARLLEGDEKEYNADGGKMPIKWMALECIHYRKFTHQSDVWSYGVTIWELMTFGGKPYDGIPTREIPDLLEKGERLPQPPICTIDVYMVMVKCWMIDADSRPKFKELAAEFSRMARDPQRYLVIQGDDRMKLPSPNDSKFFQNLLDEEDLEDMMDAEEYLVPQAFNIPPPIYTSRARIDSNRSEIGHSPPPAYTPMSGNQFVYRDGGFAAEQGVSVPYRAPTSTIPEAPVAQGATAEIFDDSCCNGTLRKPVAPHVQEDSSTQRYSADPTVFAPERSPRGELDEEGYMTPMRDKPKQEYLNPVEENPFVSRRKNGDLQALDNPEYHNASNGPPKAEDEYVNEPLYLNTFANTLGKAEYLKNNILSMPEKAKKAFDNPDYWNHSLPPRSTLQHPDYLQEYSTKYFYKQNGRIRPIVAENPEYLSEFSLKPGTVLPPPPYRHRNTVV
row,Variant,effect of a mutation on the interaction
1,R361H,with no effect

# Variants of: B1
# Conditions: with esr1_human ESR1, P03372
row,Variant,effect of a mutation on the interaction
1,R361H,with no effect

# Variants of: B1
# Conditions: with etv1_human ETV1, P50549
# Sequence of etv1_human ETV1, P50549 (P50549 whole entry): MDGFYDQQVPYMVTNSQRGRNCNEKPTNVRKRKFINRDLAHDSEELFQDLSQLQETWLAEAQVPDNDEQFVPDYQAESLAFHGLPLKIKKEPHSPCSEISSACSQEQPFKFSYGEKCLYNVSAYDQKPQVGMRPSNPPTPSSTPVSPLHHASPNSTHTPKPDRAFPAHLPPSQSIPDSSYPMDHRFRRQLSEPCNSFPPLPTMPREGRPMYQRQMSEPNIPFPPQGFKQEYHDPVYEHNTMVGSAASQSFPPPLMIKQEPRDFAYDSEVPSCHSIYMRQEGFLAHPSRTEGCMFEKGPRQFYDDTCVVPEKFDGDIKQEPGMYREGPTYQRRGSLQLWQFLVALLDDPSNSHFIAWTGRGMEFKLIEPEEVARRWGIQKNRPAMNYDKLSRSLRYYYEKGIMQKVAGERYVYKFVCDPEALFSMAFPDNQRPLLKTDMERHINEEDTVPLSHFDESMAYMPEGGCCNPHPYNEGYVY
row,Variant,effect of a mutation on the interaction
1,R361H,with no effect

# Variants of: B1
# Conditions: with fadd_human FADD
row,Variant,effect of a mutation on the interaction
1,R361H,with no effect

# Variants of: B1
# Conditions: with facd2_human FANCD2, Q9BXW9
row,Variant,effect of a mutation on the interaction
1,R361H,with no effect

# Variants of: B1
# Conditions: with fgf19_human FGF19, O95750
# Sequence of fgf19_human FGF19, O95750 (O95750 whole entry): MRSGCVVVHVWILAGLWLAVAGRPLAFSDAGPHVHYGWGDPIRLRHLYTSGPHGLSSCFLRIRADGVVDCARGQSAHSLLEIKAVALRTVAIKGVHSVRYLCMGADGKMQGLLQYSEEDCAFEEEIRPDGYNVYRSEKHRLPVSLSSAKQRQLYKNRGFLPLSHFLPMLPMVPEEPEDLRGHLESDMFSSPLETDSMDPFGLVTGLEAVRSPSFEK
row,Variant,effect of a mutation on the interaction
1,R361H,with no effect

# Variants of: B1
# Conditions: with fgfr3_human FGFR3, P22607
row,Variant,effect of a mutation on the interaction
1,R361H,with no effect

# Variants of: B1
# Conditions: with fgfr4_human FGFR4, P22455
row,Variant,effect of a mutation on the interaction
1,R361H,with no effect

# Variants of: B1
# Conditions: with foxo1_human FOXO1, Q12778
# Sequence of foxo1_human FOXO1, Q12778 (Q12778 whole entry): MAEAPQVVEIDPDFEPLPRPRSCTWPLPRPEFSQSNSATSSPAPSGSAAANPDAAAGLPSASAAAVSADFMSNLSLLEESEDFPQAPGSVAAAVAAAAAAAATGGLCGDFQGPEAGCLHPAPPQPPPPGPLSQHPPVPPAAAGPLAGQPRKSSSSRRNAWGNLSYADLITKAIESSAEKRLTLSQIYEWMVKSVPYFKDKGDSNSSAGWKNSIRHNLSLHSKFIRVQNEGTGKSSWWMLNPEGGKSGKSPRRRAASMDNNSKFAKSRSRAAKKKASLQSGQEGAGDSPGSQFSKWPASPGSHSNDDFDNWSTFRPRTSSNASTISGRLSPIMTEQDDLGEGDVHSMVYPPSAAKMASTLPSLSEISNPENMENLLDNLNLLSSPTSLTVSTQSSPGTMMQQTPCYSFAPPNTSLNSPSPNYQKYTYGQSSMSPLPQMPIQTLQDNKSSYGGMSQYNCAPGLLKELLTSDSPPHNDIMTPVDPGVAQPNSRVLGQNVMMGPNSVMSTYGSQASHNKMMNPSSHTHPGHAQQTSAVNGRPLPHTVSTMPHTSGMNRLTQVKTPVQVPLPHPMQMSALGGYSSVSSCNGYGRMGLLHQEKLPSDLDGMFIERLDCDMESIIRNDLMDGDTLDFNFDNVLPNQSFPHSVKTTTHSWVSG
row,Variant,effect of a mutation on the interaction
1,R361H,with no effect

# Variants of: B1
# Conditions: with gbra6_human GABRA6, Q16445
row,Variant,effect of a mutation on the interaction
1,R361H,with no effect

# Variants of: B1
# Conditions: with gata2_human GATA2, P23769
row,Variant,effect of a mutation on the interaction
1,R361H,with no effect

# Variants of: B1
# Conditions: with gata3_human GATA3, P23771
# Sequence of gata3_human GATA3, P23771 (P23771 whole entry): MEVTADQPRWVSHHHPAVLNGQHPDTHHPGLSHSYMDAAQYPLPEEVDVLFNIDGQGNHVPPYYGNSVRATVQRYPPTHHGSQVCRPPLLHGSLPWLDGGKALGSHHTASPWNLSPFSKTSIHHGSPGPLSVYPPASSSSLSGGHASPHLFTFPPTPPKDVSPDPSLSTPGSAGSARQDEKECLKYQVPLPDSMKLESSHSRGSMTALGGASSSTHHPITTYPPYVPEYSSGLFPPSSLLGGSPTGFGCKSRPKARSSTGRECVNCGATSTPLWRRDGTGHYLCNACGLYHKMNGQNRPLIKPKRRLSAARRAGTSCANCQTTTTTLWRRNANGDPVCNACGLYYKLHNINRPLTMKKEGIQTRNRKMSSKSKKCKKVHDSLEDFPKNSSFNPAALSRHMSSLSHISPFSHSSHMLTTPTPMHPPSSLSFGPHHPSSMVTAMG
row,Variant,effect of a mutation on the interaction
1,R361H,with no effect

# Variants of: B1
# Conditions: with gna11_human GNA11, P29992
row,Variant,effect of a mutation on the interaction
1,R361H,with no effect

# Variants of: B1
# Conditions: with gnaq_human GNAQ
row,Variant,effect of a mutation on the interaction
1,R361H,with no effect

# Variants of: B1
# Conditions: with grm1_human GRM1, Q13255
row,Variant,effect of a mutation on the interaction
1,R361H,with no effect

# Variants of: B1
# Conditions: with grm3_human GRM3, Q14832
row,Variant,effect of a mutation on the interaction
1,R361H,with no effect

# Variants of: B1
# Conditions: with gsk3a_human GSK3A
row,Variant,effect of a mutation on the interaction
1,R361H,with no effect

# Variants of: B1
# Conditions: with hdac1_human HDAC1, Q13547
row,Variant,effect of a mutation on the interaction
1,R361H,with no effect

# Variants of: B1
# Conditions: with hdac3_human HDAC3, O15379
row,Variant,effect of a mutation on the interaction
1,R361H,with no effect

# Variants of: B1
# Conditions: with hgf_human HGF
row,Variant,effect of a mutation on the interaction
1,R361H,with no effect

# Variants of: B1
# Conditions: with h31_human H3C1, P68431
row,Variant,effect of a mutation on the interaction
1,R361H,with no effect

# Variants of: B1
# Conditions: with hlab_human HLA-B
row,Variant,effect of a mutation on the interaction
1,R361H,with no effect

# Variants of: B1
# Conditions: with hnf1a_human HNF1A
row,Variant,effect of a mutation on the interaction
1,R361H,with no effect

# Variants of: B1
# Conditions: with rash_human HRAS
row,Variant,effect of a mutation on the interaction
1,R361H,with no effect

# Variants of: B1
# Conditions: with hs90a_human HSP90AA1, P07900
row,Variant,effect of a mutation on the interaction
1,R361H,with no effect

# Variants of: B1
# Conditions: with hs90b_human HSP90AB1, P08238
row,Variant,effect of a mutation on the interaction
1,R361H,with no effect

# Variants of: B1
# Conditions: with il7ra_human IL7R
row,Variant,effect of a mutation on the interaction
1,R361H,with no effect

# Variants of: B1
# Conditions: with irf6_human IRF6, O14896
row,Variant,effect of a mutation on the interaction
1,R361H,with no effect

# Variants of: B1
# Conditions: with irs1_human IRS1, P35568
row,Variant,effect of a mutation on the interaction
1,R361H,with no effect

# Variants of: B1
# Conditions: with jak1_human JAK1, P23458
row,Variant,effect of a mutation on the interaction
1,R361H,with no effect

# Variants of: B1
# Conditions: with kdm5c_human KDM5C
row,Variant,effect of a mutation on the interaction
1,R361H,with no effect

# Variants of: B1
# Conditions: with vgfr2_human KDR
row,Variant,effect of a mutation on the interaction
1,R361H,with no effect

# Variants of: B1
# Conditions: with keap1_human KEAP1, Q14145
row,Variant,effect of a mutation on the interaction
1,R361H,with no effect

# Variants of: B1
# Conditions: with klf4_human KLF4, O43474
row,Variant,effect of a mutation on the interaction
1,R361H,with no effect
